In publication PMC8218332 (Cell, 2021):

Biological target: His-tagged SARS-CoV-2 RBD (Victoria RBD) (SARS-CoV-2, Victoria/Wuhan-Hu-1 (same …, UniProt P0DTC2))
Experiment: BLI
Conditions: both partners purified

Binder	Kd
mAb 88 (antibody, V domains shown, copies: 2 + 2) VH: QLQLQESGPGLVKPSQTLSLTCTVSGGSISSGSYNWTWIRQPAGKGLEWIGRIYNSGSTNYNPSLKSRVTISVDTSKNQLSLKVRSVTAADTAVYYCARHCSGGTCYPKYYYGMDVWGQGTTVTVSS VL: QSALTQPPSVSEAPRQRVTISCSGSSSNIGNNAVNWYQQFPGKAPKLLIYYDDLLPSGVSDRFSGSKSGTSASLAISGVQSEDEADYYCAAWDDSLNVVVFGGGTKLTVL	4.4 nM
mAb 316 (antibody, V domains shown, copies: 2 + 2) VH: not shown VL: QAVLTQPPSASGSPGQSVTISCTGTSSDVGGYNYVSWYQQHPGKAPKLMIYEVSKRPSGVPDRFSGSKSGNTASLTVSGLQAEDEADYYCSSYAGSNHWVFGGGTKLTVL	0.38 nM
REGN10987 (antibody, V domains shown, source: provided by AstraZeneca; copies: 2 + 2) VH: QVQLVESGGGVVQPGRSLRLSCAASGFTFSNYAMYWVRQAPGKGLEWVAVISYDGSNKYYADSVKGRFTISRDNSKNTLYLQMNSLRTEDTAVYYCASGSDYGDYLLVYWGQGTLVTVSS VL: QSALTQPASVSGSPGQSITISCTGTSSDVGGYNYVSWYQQHPGKAPKLMIYDVSKRPSGVSNRFSGSKSGNTASLTISGLQSEDEADYYCNSLTSISTWVFGGGTKLTVL	0.38 nM
mAb 278 (antibody, V domains shown, copies: 2 + 2) VH: QVQLVQSGAEVKKPGASVKVSCKASGYIFIRYGISWVRQAPGQGLEWMGWISANNGYTNYAQKLQGRVTMTTDTSTSTAYMELRSLRSDDTAVYYCARDGGILTGYLDYFDHWGQGTLVTVSS VL: DIQMTQSPSSLSASVGDRLTITCRASQSIASYLNWYQQKPGKAPKLLIYAASSLQSGVPSRFSGSGSGTDFTLTISSLQPEDFATYHCQQSYSTLGITFGPGTKVDIK	1.6 nM
mAb 384 (antibody, V domains shown, copies: 2 + 2) VH: EVQLVESGGGLVKPGESLRLSCAASGFTFSDYYMTWIRQAPGKGLEWVSYIRSSGHTIYYADSVKGRFTISRDNAKNSLYLQMNSLRVEDTAVYYCARGGVLRFLEWPLNAFDIWGQGTMVTVSS VL: DIQLTQSPSSLSASVGDRVTITCRASQGISNYLAWYQQKPGKVPKLLIYAASTLQSGVPSRFSGSGSGTDFTLTISSLQPEDVATYYCQKYNNALGTFGQGTKVEIK	0.65 nM
mAb 222 (antibody, V domains shown, copies: 2 + 2) VH: EVQLVESGGGLIQPGGSLRLSCAASGLTVSSNYMSWVRQAPGKGLEWVSVIYSGGSTFYADSVKGRFTISRDNSKNTLYLQMNSLGAEDTAVYYCARGEGSPGNWFDPWGQGTLVTVSS VL: DVVMTQSPGTLSLSPGERATLSCRASQSVPSSYLAWYQQKPGQAPRLLIYGASTRATGIPDRFSGSGSGTDFTLTISRLEPEDFAVYYCQHYDTSPRFGGGTKVDIK	0.25 nM
